{
  "source": "paper PMC6249546",
  "biological_target": "T1, His-EmrR (Chromobacterium violaceum ATCC 12472) (UniProt Q7P000)",
  "T1 sequence": "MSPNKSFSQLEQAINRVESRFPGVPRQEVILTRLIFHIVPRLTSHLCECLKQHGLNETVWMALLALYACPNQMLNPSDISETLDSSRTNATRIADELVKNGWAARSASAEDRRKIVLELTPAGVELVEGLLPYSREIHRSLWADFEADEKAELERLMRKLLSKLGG",
  "assay": "EMSA",
  "settings": "32P-labelled PCR probes, 100-300 nM DTT-reduced His-EmrR, interaction buffer as in da Silva Neto 2012 and Previato-Mello 2017 (composition, pH …)",
  "data": [
    {"sequence": "TTGGATCCGAAGGCCAGGCGCTGCATCTGGGCGGCGCCCACCCGAGCGCGCTGGAAAAACTGCTGTTCCCGCGGCTGGAAACCAGCCAGCTGCTGGGCGGCGGCAGCCAGCCGCTGCGGCTGACGCTGAGCTGGCAACAGGGTTGGGCGCAGATCGGCCTGTTCGAATGGACGGTGTGGCTGCTGCTGTCGCTGCTGCTGGGCCTGGGCATAGGCCTGGCCGGCTTCAGCTTCGTGCGCAGCAGCGACAGCTGCAGTAAT (double strand) [CV_0208 coding region]", "values": [
      {"measurement": "binding", "value": "binds more weakly"}
    ]},
    {"sequence": "TTGGCACTGCAGCAAATAAGCCTGCCCGTGGCGGCGCCTCCCCCGCCGCCACTCTCCCTCCTTCCCCCGTCTCGCCGGCCCTTCGGCTGCCGCCGTCTACCGGCCGCCAATCTAACCCATTGTCATTTCGCCACACTTTTCGCCAGCATTTCATTAGCAAGGTTATTATTACTTGCAAAATAATACCGCACGTTACTAAAATGGCCGCATGAGTCCAAACAAGAAGCTTATA (double strand) [emrR promoter]", "values": [
      {"measurement": "binding", "value": "binds"}
    ]},
    {"sequence": "TTGGCAGAGCTCCAATGATGCATGTCGGTCCGGACGTGATTAATCTGGTGATAATCACCCGGGTTATTATTCGAGTGAAAAAGCGCGGGCTCAGCCAAGCTTATA (double strand) [emrCAB promoter]", "values": [
      {"measurement": "binding", "value": "binds"}
    ]}
  ]
}
